In the domain aggregation screens of Martell et al. (2025):

Experiment: soluble fraction after stress (log2 fold change); higher = more stays soluble; pooled small domains, quantitative proteomics
Settings: stress: 50 degC
Procedure, shortened: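 After stress at 50°C, the amount of each protein still soluble was measured. This was done on pooled custom libraries of small protein domains, using high-throughput quantitative proteomics. The figure given is a base-two log fold change and stands for aggregation propensity, with higher values meaning more protein stays in solution.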

Sequence	soluble fraction (log2)
HMNYHDTLSYLMDAFGGADNLQKLLGVGPSALSNYRRREHLPLNQARKLSNIAPEFGFNLDPYTLKISVID	-1.57
HMQDRDKNIEEGRQLVLHEMDRLDLVDEPLHDVARQLNMKAVEDMFAAVGAGDLRLGQIIHQLLKQADTN	-0.0442
HMEELVGFEEKVRSILTSPLSAKEIKEKTHIEIDTRKLSKMLSELSFIKTEKKNGKKIFRLVS	-0.284
HMSSPPNPQLAKRYISYSVDDIARLFGIHRHTVREWIKRGLPVIDQQRPLLVQGADLAEFLRKRRA	-0.719
HMNGQITPSRAKEIALGHAGVSEGSANFKKIKLDNKNGRPAYEIEFIANNSRYEFEINASNGSIIKFNK	0.345
HMLLTDGLERRIDGDKNLHIRISLPMLVKGQIKLAKSGNNESTVKGIFKIESYPGSHPRDVVTEIIEG	-0.0938
HMGMSKQKQSSLVRIIMQEISDANEGRMKMSQIIDAALIKGISDSTVRSVISRLSTTGAIYEPQTGTYEW	-0.643
HMTPEPVTMYITSLTEFRSEPNTEAGIIKLLDAYEEVEMIESRGEWSKISYGDQIGYILSEFLTAENRT	-0.0121
HMWSGEPFLDELRHADTLLETDPEAALAEYRALADKGSAAAMMALGNAYASGSHVARDEGEAEHWYRRAA	0.0547
HMADQVVGQLGMVTQRIDNLQQTGRVSANGLDWAARSENGQPIPQGMPVEVLRIEGVKLIVRPVN	-0.0238
HMGKDLLGYEVFAESGDLVGILKDVMWLPHSDVYVITKGGKEFLIPVIPEVVKGINHEQGVIVISPMEGLL	-0.0165
HMNPETPAQQAVRKRLIVSVQFYRRLKDTPLKAVWQVAARDTLVNGYNLFLKRNIHAFNDRTLSTPSALS	-0.0672
HMTQFSLTTEEINVLKKSYSEFTDSDKELFNKILEKYNKFKNESSNDIAFEAKILEKLQEIENFYE	-0.126
HMIMTHSALLEKDGFDIVKVHFERPNDDGFDFLDMTLPGEIVYKSFGFSEDEILKLKRYAKNNSSLIWDF	-2.31
HMLPVDALFAQHPALIVTLGQTEKLKHGAAIRDWHFADGTYRVYSETGEFLLLGTVKGQILTTVKSFFE	-2.08
HMSLNSELIARIENLIASIEDKRSWGYGFAESVLGQVQAGATLSPRQLEIIAKLEKENSYSVQLERQ	-0.765
HMFNIIARQEIDEILYEYKIENSEDYKNRDPEELAEIYENIKTVQENHDLSDDDVEELLKSIFSDY	-1.02
HMQFEIGDTVRVHVNIREGERERVQMFEGTVIAKRGSGVSETFTVRRVSYGVGVERVFPVNSPNV	0.105
HMPTSILEKILNSAAEQFTRYGFKTITMDDIARHAGVSKKTLYQHFETKLDIIVAAVTHFHTMKF	-0.718
HMFSNATISGLKAGALVRVYNISGVAVSTLTADAEGKVSVDLNNLPKGVYILSTPSKSFKVLN	-0.54
HMADLSAYAGKEGMTDSVLRPSGKVDIEGHILDAVSRGDFIEKGKRVIVIKAEGSYLVVKKRMP	-0.175
HMDYDDLVPLDARGRLRLDGQDIILAFGRHRGRSIEEVHNHDKSYFDWLVSPAGGLEDEVIATLRERF	-0.607
HMRINIVKSKNAEQLYIIHSYRINGKNTSKIYKKLGTMADLLPLHNHDRDQVLAWAKEQARLATEQYDQEN	-0.855
HMNEIESFSNTKNPFSLTFKTSKDSSYKVEASSNLKKWTTLSQIKGTGNPITFTESRRILFRKQYYRVTLS	-0.197
HMNNPNFAIQKYVTGSDIKRVRKTLRLTQKKFAELVGVSKATMERWETKEDKITGPVVLLLKILEDHPEY	-1.3

Sequence	soluble fraction (log2)
HMKKMEEEFALFNAWVDRRLGIPLAAYKENQMQRRILTIMENSGAKTLREYQQLIEGDEGVRAAFLAHIT	-1.1
HMTEDNDLETIAYDILKERNLNNININVKNGVLNIYGKTETLKEKREIEKILSSLNVSKINNLIKI	0.315
HMFDPAKQMQRIRKYAGMNRKEFSEWLNIPYRTMTDWELGNRTMPVYLLELIVYKVNHEIANA	0.186
HMADVPSTIFEAYRILGLNPEAPPVAVKKVVDALRMSWHPDHARSEPDRRHREERIKQINAAWDLLKGV	0.148
HMVKPQANTIYKEYIKYRANLQNKNEFLSFSEYAKQKHNLEQMSEIMVDANLKEEMLETLKEMS	0.0362
HMFNFPEEVRVQLAKSEQLRNLLIPMSETVRDALSGEELWFGRTIFNTTSKKIESWTNPGVWVE	-1.45
HMSNAIDDAVEKVISENLDLAKERGLQSMGPLMGLVMKELGGTADGKAVSEALRRKISEISD	0.293
HMVSRQINVIPDDLAGLRLDQALAHLFPQHSRSRLKEWLLEDIIIVQGGPKRPKDIVSGGEIVEIKL	-0.0906
HMELKFIGEAVNNPKRPLIAILGGAKVSDKIGVIENLLTKADKILIGGAMMFTFLKAEGKNIGTSLVED	0.0616
HMADTSPEGVQKLIKAFEQFGVSKDDIEGFIQRRVDAITPANVVSLRKIFTSLRDGMSSAKDWFKGA	0.00107
HMTVAEVEDRMEASRVRQALDAVGEPHRTTIALAYFTGLTHTEIAQRMGVPLGTVKSRIRDGMAKMRTHLG	-0.617
HMVESLTDRELQILSLAAKGYTNKAIAVQLGISDRTVQNHLANTFQKLNAESRTEAVMRAVSLGLISA	-0.213
HMDDPLSQLTPREREVLELMASGASNQGIADALVITVRAVEKYVSSIFGKLGLPSTGSESRRVLAVLTFLR	-0.635
HMKVTGSVQKKKGYYYIVVRLPTKNGTQYEQKQKWFNTKLKATPRNKTAAQVILAEKLTEYGGIV	-2.8
HMDIPTSAEAVRAYLASGFIKGIGEATARMLVDKFGAETLEIIKTEPMKLTKISGIGPKKAKMIHESYLEK	0.177
HMDFEVGTVKWFNTKKGYGFITRDQGEDIFVHFRNIKGQGRRSLSDGERVSFVVTHGDKGLQADQVSP	-1.38
HMASELVSADEKYSGLVSYLLGRVVVVDQIDHAIALAKKYRYSLRIVTLDGELLSPGGSMTGGAFKNS	-0.0628
HMTKPAEVRIDELMNAAQTLFLAKGVEATTISEIIASVGVAKGTFYHYFESKQHIVEALKKRYID	-1.49
HMVFSKEELLFNSDSLLSLYPNDNKLLETILSEKIDHAVKNNDMSMYKEILVIDPKNPLANYHLLM	0.0579
HMVTVPNYSDPRQYVEWGNANGITINRAVGDTIASMSGRVQDVRDSNGNSVIGKKVKKGSTVTVYIYFLK	-0.00985
HMGEESIAELISNPKLSDAKRTVILDLLSRGLTVDQIKPYIQSDDPYTAEQLQFELYKLFFTQI	-0.228
HMDIPITFEQLPAKAQAFVKQYFKIEEIASVWRDDDIHDQDYKVYFNDGSEIEFYANGDWEEV	-0.62
HMGSFFSKATAPVRTTGGDGLYKHGSIWFNTSTGRLFVYIPDDRYTGLLDTHNGDIGYWVDVS	-2.2
HMAVVIPDVKGMTIEEAAPFLAEKGIRYNIIDSVFSKDVDPGAIVEIVPTPGSKVKEGRIVFVTINAK	-0.538
HMDYKLDVNFPEMYLEQIPAEKRAALIQILEQDPRPSYQKDPVRIYGMSYAGMEIHFRVDKETLYVTEVER	-0.996

Sequence	soluble fraction (log2)
HMFDDEELDRFAGVPADAYLPADEDEFREVFYTMRPGEVVEWVRSLELRHIEIPNGIKDEIFMMIR	-3.35
HMSQLETEEAKRIVLKDLLRLYNNYNIIELEEDEFDRFITYLNMPYDFLQKTSDYDLAVSIKRMYASY	-2.3
HMTSRIHDYWTSPGQPGYAKIGWGTAGDFRRAKALIGEKIAANSPEDMRYLNQIIAQWHFDALGYWPGDH	-2.49
HMKIERKGDESYLSFVERATSALSDGLIDYQQWGRAVVGEDLYSEENTRRIAKFFAQFIQNLEND	-1.9
HMIAAVIAQVANTNERIILEKRYLSFKSWDEIAVEMRISPRWAYTLHERALKAVDQVLSKQNNE	-4.07
HMIPSEQYNTALTEIGLSTRAHNSLRRAGIMTLGQLIEKTRDGLPPLPGFGDKSQVEVQDLLTGLGYPI	-0.203
HMRRGPLTPDDFVLDMRVVHPRYGVGRIVALSGSGESRKATVDFGGSIGRMKFVLSQSPLKP	-0.414
HMLQVSDENFVVELVQKVLLDNPSSVQEYKNGKESVLQFLIGQAMKASKGTANPQIVKEIMLKLL	-0.314
HMQTASVRFADGQLEVKQKGLQRVSVYSLNGMTVANKAVQGQDYVTISLPRAAYIVKITTQNGSFTKVI	-0.207
HMETVPMIDLRGMTQEQAEKAIVGLGLTVGTVDHSSSDMPAGQVWFQSVEPKDEVAPGTKVNIIISTGS	-0.000277
HMQASPADLLSDRELEVFQLTGEWKTTRQIAQELHLSVKTIEYYREQIKRKLNLKSAAELTQHATAWVQRG	-0.361
HMRPADTAAMLKYLSSGAVKGIGGALAGRIIEAFGDESIKVIEEDPARLATVKGITLKKAKEISEEMQRVN	0.0712
HMKMSVKNEIISLLEKNRDTSISGQVIADSLNVTRAAVWKAIKVLKEEGYNIDGTPNKGYILLGNN	-0.368
HMYRYTTFKVKEADTLLPFIQKSLNGISHNRAKAILTGGGVLVDKKITRAYDFALRPGMTVEISKSKP	-0.103
HMDTEIGDILALRQIMELLDEKDRQLIIMRYFQGLTQSVTAKNLNMTQVQVSRREKKLLTFMREQLL	-0.739
HMKVRVFIERSNDGYSAYMPDDNNLPFGLTGDGKTAQEAMQDFLLARDEMKEFFIEEGKEFPEVEFDFS	-1.35
HMTMNLIEIGHVVGARRAELGLTQAQLAHLSGLSRQTVVGLEKGTLSDLGVNRVGQVMAVLGLDS	-0.51
HMARGTRTRAKLLAAAEVVFARYGYTEASIERITEEAGVGQGTFYLYFASKLEIFEELVDDLNR	-2.87
HMDRASGEEEALKEAEDAISRVWEFDGPVELNPQNSYLRRLQHELASRYNVKSVSIGQEPNRRVVYYK	-0.0181
HMSKNDLAGDEADVYKLLSVETGKPISDLVNRLPFGKSKTREILNTLAEKGFVYISGSGRGTKYHR	0.0557
HMARTLSVTVSENYANMRLDSFLFESGLYPSRSKAVKQIESGKVFVNGNEPTKKTIVVANDFIVYEEYAEE	-1.06
HMHSILDDIPTVGPARRKALMRRYESLEAIRQATVDELKELPEINEASAEAIVSFFAGQAKEG	-0.0626
HMASELQQVQALLESQRYNEALILIETTIGKGASESTELLFARADVFASSGRHDEAEQAYREL	-0.0838
HMNNWRRSLEREVTASLARGDRDIFDGLNRSFEAALITKALEHTGGRRIEAATLLGIGRNTLTRKIQDLGL	-1.83
HMDAKIKDYADAYAKMDPQQAASLFNNMTTGSLDLVAKILENIPANKRAAILEKMDVNAAAQVTEKMR	0.117
